For one molecule, Kd results are on record in paper PMC11423142, “Clec7a Worsens Long‐Term Outcomes after Ischemic Stroke by Aggravating Microglia‐Mediated Synapse Elimination” (Advanced Science, 2024).

This assay deals with T1, purified human Clec7a protein (R&D Systems Cat. 1859-DC-050) (human, UniProt Q9BXN2 66-247).
T1 construct: Clec7a, human, bought recombinant protein; source: bought: R&D Systems (Cat. 1859-DC-050)
T1 sequence (looked up): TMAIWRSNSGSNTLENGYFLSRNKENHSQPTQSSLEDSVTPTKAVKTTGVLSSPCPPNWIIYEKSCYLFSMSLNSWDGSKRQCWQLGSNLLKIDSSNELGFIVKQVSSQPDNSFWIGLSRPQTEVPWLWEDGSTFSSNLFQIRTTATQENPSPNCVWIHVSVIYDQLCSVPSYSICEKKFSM
Description: MST; Monolith NT.115, 20 °C, 20 mM HEPES pH 8.0, 150 mM NaCl; Clec7a constant at 50 nM, MD2 varied from 10 µM to 1.2 nM; n = 3. The note with it: both partners purified.

In general, Kd refers to the concentration at which binding is half-saturated. Higher therefore signals a looser complex.

B1: human MD2 protein (R&D Systems Cat. 1787-MD) (ligand, UniProt Q9Y6Y9 19-160, looked up)
chain: QKQYWVCNSSDASISYTYCDKMQYPISINVNPCIELKRSKGLLHIFYIPRRDLKQLYFNLYITVNTMNLPKRKEVICRGSDDDYSFCRALKGETVNTTISFSFKGIKFSKGKYKCVVEAISGSPEEMLFCLEFVILHQPNSN
notes: MD2 (lymphocyte antigen 96), human, bought recombinant protein; source: bought: R&D Systems (Cat. 1787-MD)
Molecule B1 showed a Kd of 2.96 µM.
